Measurements published in paper PMC10711553, “Structural and biochemical analysis of the PARP1-homology region of PARP4/vault PARP”.

What was measured:
[1] = molecular target: T1, PARP4 WGR-CAT (Homo sapiens, UniProt Q9UKK3 95-573); experiment: EMSA; 100 nM RNA; FP: 50 mM Tris pH 7.5, 50 mM NaCl, 0.05% NP40, 2 mM DTT, 5% glycerol, room temperature 30 min; EMSA: same but 20% glycerol, 100 nM nucleic acid, room temperature 30 min, gel at 4 C in Tris-glycine; details: protein: recombinant; tags: N-terminal His-SUMO tag, cleaved with TEV; label: none (SYBR Gold stain); Mfold secondary structure, annealed
T1 sequence: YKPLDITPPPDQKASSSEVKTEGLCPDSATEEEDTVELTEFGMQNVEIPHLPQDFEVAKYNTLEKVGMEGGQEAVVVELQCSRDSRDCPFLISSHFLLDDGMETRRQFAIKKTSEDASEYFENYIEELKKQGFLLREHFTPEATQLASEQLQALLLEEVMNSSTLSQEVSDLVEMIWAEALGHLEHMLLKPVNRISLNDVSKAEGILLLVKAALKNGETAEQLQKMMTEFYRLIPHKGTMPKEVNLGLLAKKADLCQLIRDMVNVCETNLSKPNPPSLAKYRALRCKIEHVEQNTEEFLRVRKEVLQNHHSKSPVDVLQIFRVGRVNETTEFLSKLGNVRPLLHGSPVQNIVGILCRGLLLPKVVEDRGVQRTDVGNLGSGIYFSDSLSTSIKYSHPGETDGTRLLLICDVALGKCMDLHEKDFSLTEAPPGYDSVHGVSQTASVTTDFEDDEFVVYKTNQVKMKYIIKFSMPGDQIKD

[2] = molecular target: T2, PARP4 BRCT-WGR-CAT (Homo sapiens, UniProt Q9UKK3 1-573); experiment: EMSA; 100 nM RNA; apparent Kd; FP: 50 mM Tris pH 7.5, 50 mM NaCl, 0.05% NP40, 2 mM DTT, 5% glycerol, room temperature 30 min; EMSA: same but 20% glycerol, 100 nM nucleic acid, room temperature 30 min, gel at 4 C in Tris-glycine; details: protein: recombinant, tags: N-terminal His-SUMO tag, cleaved with TEV, Mfold secondary structure, annealed
T2 sequence: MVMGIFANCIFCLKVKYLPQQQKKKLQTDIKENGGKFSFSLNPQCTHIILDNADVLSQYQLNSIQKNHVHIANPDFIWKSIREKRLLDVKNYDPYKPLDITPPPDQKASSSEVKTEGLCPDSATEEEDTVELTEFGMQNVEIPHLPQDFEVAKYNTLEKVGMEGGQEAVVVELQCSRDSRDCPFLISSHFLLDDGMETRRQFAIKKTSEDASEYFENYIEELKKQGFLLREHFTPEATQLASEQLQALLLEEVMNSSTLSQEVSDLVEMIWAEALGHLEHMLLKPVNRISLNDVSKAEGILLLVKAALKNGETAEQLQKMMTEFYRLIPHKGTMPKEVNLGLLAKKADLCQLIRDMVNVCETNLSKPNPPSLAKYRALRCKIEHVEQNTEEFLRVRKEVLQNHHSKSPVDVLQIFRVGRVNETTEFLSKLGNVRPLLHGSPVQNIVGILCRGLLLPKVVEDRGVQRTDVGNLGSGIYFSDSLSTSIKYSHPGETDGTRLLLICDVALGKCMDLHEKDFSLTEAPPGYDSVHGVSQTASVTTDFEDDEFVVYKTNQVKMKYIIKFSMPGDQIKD

[3] = molecular target: T1, PARP4 WGR-CAT; experiment: EMSA; 100 nM DNA; FP: 50 mM Tris pH 7.5, 50 mM NaCl, 0.05% NP40, 2 mM DTT, 5% glycerol, room temperature 30 min; EMSA: same but 20% glycerol, 100 nM nucleic acid, room temperature 30 min, gel at 4 C in Tris-glycine; details: protein: recombinant; tags: N-terminal His-SUMO tag, cleaved with TEV; label: none stated (SYBR Gold stain); blunt
[4] = molecular target: T1, PARP4 WGR-CAT; experiment: fluorescence polarization; 30 nM RNA; FP: 50 mM Tris pH 7.5, 50 mM NaCl, 0.05% NP40, 2 mM DTT, 5% glycerol, room temperature 30 min; EMSA: same but 20% glycerol, 100 nM nucleic acid, room temperature 30 min, gel at 4 C in Tris-glycine; details: protein: recombinant; tags: N-terminal His-SUMO tag, cleaved with TEV; label: 5'-6-FAM; Mfold secondary structure, annealed
[5] = molecular target: T2, PARP4 BRCT-WGR-CAT; experiment: fluorescence polarization; 30 nM RNA; apparent Kd; FP: 50 mM Tris pH 7.5, 50 mM NaCl, 0.05% NP40, 2 mM DTT, 5% glycerol, room temperature 30 min; EMSA: same but 20% glycerol, 100 nM nucleic acid, room temperature 30 min, gel at 4 C in Tris-glycine; details: protein: recombinant; tags: N-terminal His-SUMO tag, cleaved with TEV; label: 5'-6-FAM; Mfold secondary structure, annealed

B1: HDV ribozyme RNA (84 nt) (structured_RNA)
RNA: GCCGGCCAUGGUCCCAGCCUCCUCGCUGGCGGCCGGUGGGCAACAUUCCGAGGGGACCGUCCCUCGGUAAUGGCGAAUGGGACA
Does B1 bind [1]?
Result: no binding

And the Kd ([2]; label: none (SYBR Gold stain))?
The Kd was 3.4 ± 0.3 µM.

B2: 47-bp DNA duplex (dsDNA)
DNA 1: CAGATCTACCGAATCAGTCCGACGACGCATCTGCACTACGAGGATAC
DNA 2: GTATCCTCGTAGTGCAGATGCGTCGTCGGACTGATTCGGTAGATCTG
Does B2 bind [3]?
Result: no binding

B3: vtRNA1-2 (structured_RNA)
RNA: GGCUGGCUUUAGCUCAGCGGUUACUUCGAGUACAUUGUAACCACCUCUCUGGGUGGUUCGAGACCCGCGGGUGCUUUCCAGCUCUUUU
With B3 as the binder, how does the Kd ([2]; label: 5'-6-FAM) read?
Its Kd is 1.5 ± 0.4 µM.

Does B3 bind [4]?
Result: no binding

What about the Kd [5] of the same binder?
Its Kd is 15 ± 9 µM.
